According to patent publication US20250304712A1 (published 2025):

T1: recombinant LY6K protein with histidine and Strep tags (human, UniProt Q17RY6 18-138)
T1 chain: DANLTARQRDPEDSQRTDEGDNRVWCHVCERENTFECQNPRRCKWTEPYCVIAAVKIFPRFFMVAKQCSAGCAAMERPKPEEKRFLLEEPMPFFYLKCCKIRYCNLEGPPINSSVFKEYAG


Biological target: T1, recombinant LY6K protein with histidine …
Assay: QCM

Kd [nM] | Binder
0.243 | murine anti-LY6K antibody 22C-G8 (antibody, V domains shown) VH: QVQLQQPGAELAKPGASVKLSCKTSGYTFTSYWMHWVKQRPGQGFEWIGEINPSNGGANYNEKFKRKATLTVDKSSSTAYMQLRSLTSEDSAVYYCTMGGNFFFAYWGQGTSVTVSS VL: not shown
0.612 | murine anti-LY6K antibody 28C1 (antibody, V domains shown) VH: QIQLVQSGPELKKPGETVKISCKTSGYTFTNFAMNWVKQTPGKGLRYMGWINTNTGEPTYVEEFKGRFAFSLETSASTAYLQISNLKNEDTATYFCTREWRRSYYFDYWGQGTSLTVSS VL: DIQMTQTPLSLPVSLGDQASISCRSSQTILHSNGNTYLEWYLQKPGQSLKLLIYKVSNRLSGVPDRFSGSGSGTDFTLKISRVEAEDLGVYYCFQGSHDPFTFGSGTKLE
1.34 | murine anti-LY6K antibody G57 (antibody, V domains shown) VH: EVQLVESGGDLVKPGGSLKLSCAASGFTFNSYGMSWVRQTPDKRLEWVATISSGGTYTYYSDSVKGRFTISRDNAKNILYLHMSSLKSEDTAMYYCARHDWDFFDYWGQGTTLTVSS VL: DVVMTQTPLSLPVSLGDQASISCRSSQSLVHTDGDTYLNWYLQKPGQSPKLLIYKVSNRFSGVPDRFSGSGSGTDFTLKIRRVEAEDLGVYFCSQNTHVYTFGGGTKLE
